Residue numbers refer to the chain shown, from its start. Numbers in names are those of the source.
T1: γ subunit of human NAD-dependent isocitrate dehydrogenase (human, UniProt P51553 40-393)
T1 construct: γ subunit of human NAD-IDH (IDH3G); the N-terminal 39 residues (mitochondrial signal peptide) were removed during construction; a TEV protease site stood between the subunit and the His6 tag; residues of the site may remain after cleavage; also called IDH3G; regulatory subunit; not shown: His6, C-terminal, cleaved
T1 sequence (looked up): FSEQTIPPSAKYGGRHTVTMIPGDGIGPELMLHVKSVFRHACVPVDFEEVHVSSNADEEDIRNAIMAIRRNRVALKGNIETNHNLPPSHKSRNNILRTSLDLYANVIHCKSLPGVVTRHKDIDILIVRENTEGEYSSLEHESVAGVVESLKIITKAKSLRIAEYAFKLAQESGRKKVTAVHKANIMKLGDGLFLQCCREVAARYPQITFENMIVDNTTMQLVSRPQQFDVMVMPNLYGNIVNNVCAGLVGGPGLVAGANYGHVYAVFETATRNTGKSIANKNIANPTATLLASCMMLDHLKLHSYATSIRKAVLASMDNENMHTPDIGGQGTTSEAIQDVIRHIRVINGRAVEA

B1: mutant α_(Y126F)βαγ heterotetramer of human NAD-dependent isocitrate dehydrogenase (complex)
chain 1: TGGVQTVTLIPGDGIGPEISAAVMKIFDAAKAPIQWEERNVTAIQGPGGKWMIPSEAKESMDKNKMGLKGPLKTPIAAGHPSMNLLLRKTFDLYANVRPCVSIEGYKTPYTDVNIVTIRENTEGEFSGIEHVIVDGVVQSIKLITEGASKRIAEFAFEYARNNHRSNVTAVHKANIMRMSDGLFLQKCREVAESCKDIKFNEMYLDTVCLNMVQDPSQFDVLVMPNLYGDILSDLCAGLIGGLGVTPSGNIGANGVAIFESVHGTAPDIAGKDMANPTALLLSAVMMLRHMGLFDHAARIEAACFATIKDGKSLTKDLGGNAKCSDFTEEICRRVKDLD
chain 2: not shown
chain 3: B1 chain 1 with F126Y
chain 4: T1 sequence (looked up)
B2: mutant αβα_(Y126F)γ heterotetramer of human NAD-dependent isocitrate dehydrogenase (complex)
chain 1: B1 chain 1 with F126Y
chain 2: not shown
chain 3: B1 chain 1
chain 4: T1 sequence (looked up)
B3: α subunit of human NAD-dependent isocitrate dehydrogenase (natural protein, UniProt P50213 28-366, looked up)
chain: B1 chain 1 with F126Y
notes: α subunit of human NAD-IDH (IDH3A); the N-terminal 27 residues (mitochondrial signal peptide) were removed during construction; cloned in the co-expression vector pQlinkN; gene bought from FulenGen in pReceiver-B01/B02; also called IDH3A; catalytic subunit

Legend:
[1] = target: the molecule itself; assay: SEC-MALS; 100 μl of purified protein injected at 2 mg/ml (low concentration); Superdex 200 10/300 GL, room temperature, 10 mM HEPES pH 7.4, 200 mM NaCl, 5 mM β-ME, 0.4 ml/min
[2] = target: β subunit of human NAD-dependent isocitrate dehydrogenase (human); assay: SDS-PAGE of the co-purified complex; subunits co-expressed in E. coli, purified as a complex by the His6 tag of β or γ (Ni-NTA, TEV cleavage, second Ni-NTA, gel filtration); 12% SDS-PAGE with Coomassie blue staining, intensity of the two bands; conditions: both partners purified
[3] = target: T1, γ subunit of human NAD-dependent …; assay: as above; conditions: both partners purified

Chain of β subunit of human NAD-dependent isocitrate dehydrogenase (human) (chain, as listed by the source): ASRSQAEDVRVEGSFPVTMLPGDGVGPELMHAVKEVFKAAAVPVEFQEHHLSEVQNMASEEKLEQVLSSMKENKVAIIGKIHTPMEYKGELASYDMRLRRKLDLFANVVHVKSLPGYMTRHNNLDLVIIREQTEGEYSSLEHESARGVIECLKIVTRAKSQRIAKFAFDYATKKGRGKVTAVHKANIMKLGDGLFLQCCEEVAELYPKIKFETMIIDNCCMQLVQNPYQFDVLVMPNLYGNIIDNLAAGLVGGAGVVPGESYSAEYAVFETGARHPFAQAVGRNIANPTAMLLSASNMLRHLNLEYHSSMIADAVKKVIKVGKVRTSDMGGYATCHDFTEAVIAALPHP

Binder	stoichiometry N [1]	stoichiometry N [2]	stoichiometry N [3]
B1	2		
B2	2		
B3		1	1

Source: PMC5282582
